Data taken from the supplement of paper PMC7877785.
± gives the uncertainty stated by the source.

Experiment: self-splicing fitness, log relative to wild type (ln ratio); higher = more splicing; Tetrahymena group I intron in knt gene, E. coli kanamycin selection, DiMSum; sequences stand for … in CUCUCU…GGAGGGAAAAGUUAUCAGGCAUGCACCUGGUAGCUAGUCUUUAAACCAAUAGAUUGCAUCGGUUUAAAAGGCAAGACCGUCAAAUUGCGGGAAAGGGGUCAACAGCCGUUCAGUACCAAGUCUCAGGGGAAACUUUGAGAUGGCCUUGCAAAGGGUAUGGUAAUAAGCUGACGGACAUGGUCCUAACCACGCAGCCAAGUCCUAAGUCAACAGAUCUUCUGUUGAUAUGGAUGCAGUUCACAGACUAAAUGUCGGUCGGGGAAGAUGUAUUCUUCUCAUAAGAUAUAGUCGGACCUCUCCUUAAUGGGAGCUAGCGGAUGAAGUGAUGCAACACUGGAGCCGCUGGGAACUAAUUUGUAUGCGAAAGUAUAUUGAUUAGUUUUGGAGUACUCGUGGUCG
Method in brief: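 Six replicate transformations of E. coli BL21(DE3) with a pET-22b(+) library were grown overnight at 37°C or 30°C. The library randomised all eight P1ex-region intron nucleotides, the intron lying in the knt kanamycin-resistance gene, and plates were LB agar with or without 25 μg/mL kanamycin plus 100 μg/mL carbenicillin, 50 μM IPTG and 0.2% rhamnose. Pooled colonies were amplicon-sequenced on an Illumina HiSeq 2500, and fitness is the DiMSum error-weighted combination of wild-type-normalised replicate fold changes, kanamycin versus none.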

| Sequence | self-splicing fitness (ln) (30 °C) | self-splicing fitness (ln) (37 °C) |
| --- | --- | --- |
| AAUAAGCAAUAUUACGGCUA | 0.107 ± 0.1 | 0.0369 ± 0.13 |
| AAUAAGCAAUAUUACGGUGA | -1.18 ± 0.093 | -0.256 ± 0.11 |
| AAUAAGCAAUAUUACGUACC | -0.867 ± 0.14 | -0.89 ± 0.15 |
| AAUAAGCAAUAUUACGUAGA | -1.51 ± 0.11 | -0.998 ± 0.13 |
| AAUAAGCAAUAUUACGUCCC | -0.502 ± 0.17 | 0.393 ± 0.26 |
| AAUAAGCAAUAUUACGUUAC | -3.62 ± 0.18 | -1.39 ± 0.14 |
| AAUCAGCAAUAUUACGAGAC | -3.64 ± 0.27 | -0.528 ± 0.12 |
| AAUCAGCAAUAUUACGAGGA | -2.13 ± 0.12 | -1.23 ± 0.11 |
| AAUCAGCAAUAUUACGAUGU | 0.218 ± 0.053 | 0.543 ± 0.08 |
| AAUCAGCAAUAUUACGCAAC | -1.32 ± 0.11 | -0.666 ± 0.13 |
| AAUCAGCAAUAUUACGCAGC | -1.36 ± 0.15 | -0.207 ± 0.14 |
| AAUCAGCAAUAUUACGCAUG | -0.409 ± 0.038 | 0.349 ± 0.058 |
| AAUCAGCAAUAUUACGCGCG | 0.0814 ± 0.079 | -0.098 ± 0.1 |
| AAUCAGCAAUAUUACGCGGG | -1.33 ± 0.095 | -1.42 ± 0.099 |
| AAUCAGCAAUAUUACGCGGU | -2.35 ± 0.12 | -1.14 ± 0.14 |
| AAUCAGCAAUAUUACGCUCA | 0.294 ± 0.074 | 0.323 ± 0.1 |
| AAUCAGCAAUAUUACGCUCU | -0.00647 ± 0.077 | 0.0812 ± 0.097 |
| AAUCAGCAAUAUUACGCUGA | -2.61 ± 0.17 | -1.76 ± 0.24 |
| AAUCAGCAAUAUUACGCUUC | -1.77 ± 0.069 | -0.398 ± 0.088 |
| AAUCAGCAAUAUUACGGACG | -0.448 ± 0.068 | 0.478 ± 0.12 |
| AAUCAGCAAUAUUACGGCUA | -0.0319 ± 0.079 | 0.406 ± 0.094 |
| AAUCAGCAAUAUUACGUACU | 0.336 ± 0.084 | 0.692 ± 0.11 |
| AAUCAGCAAUAUUACGUAUC | -0.504 ± 0.044 | 0.251 ± 0.068 |
| AAUCAGCAAUAUUACGUCAG | -1.86 ± 0.12 | -0.81 ± 0.12 |
| AAUCAGCAAUAUUACGUCUG | -1.16 ± 0.049 | -0.895 ± 0.065 |

| Sequence | self-splicing fitness (ln) (30 °C) | self-splicing fitness (ln) (37 °C) |
| --- | --- | --- |
| AAUCAGCAAUAUUACGUGGC | -3.57 ± 0.17 | -1.83 ± 0.12 |
| AAUCAGCAAUAUUACGUUGC | -3.97 ± 0.23 | -3.16 ± 0.22 |
| AAUGAGCAAUAUUACGACAC | -2.71 ± 0.31 |  |
| AAUGAGCAAUAUUACGACGA | -2.44 ± 0.34 | -3.22 ± 0.47 |
| AAUGAGCAAUAUUACGACGU | -1.13 ± 0.11 | -0.443 ± 0.12 |
| AAUGAGCAAUAUUACGAGGC |  | -3.11 ± 0.4 |
| AAUGAGCAAUAUUACGAUGU | -2.94 ± 0.15 | -1.97 ± 0.17 |
| AAUGAGCAAUAUUACGCAGU | -2.51 ± 0.2 | -3.29 ± 0.31 |
| AAUGAGCAAUAUUACGCCGA | -2.34 ± 0.3 | -1.75 ± 0.43 |
| AAUGAGCAAUAUUACGCUUA | -1.94 ± 0.14 | -0.919 ± 0.12 |
| AAUGAGCAAUAUUACGCUUG | -3.09 ± 0.17 | -2.11 ± 0.18 |
| AAUGAGCAAUAUUACGGAAC | -3.52 ± 0.47 |  |
| AAUGAGCAAUAUUACGGGCG |  | -3.07 ± 0.47 |
| AAUGAGCAAUAUUACGGUCC | -2.47 ± 0.45 |  |
| AAUGAGCAAUAUUACGUCAA | -2.4 ± 0.21 | -2.59 ± 0.46 |
| AAUGAGCAAUAUUACGUCAC | -2.93 ± 0.41 | -1.92 ± 0.29 |
| AAUGAGCAAUAUUACGUCCU | -1.45 ± 0.13 | -0.218 ± 0.12 |
| AAUGAGCAAUAUUACGUCUC | -2.96 ± 0.23 | -2.19 ± 0.24 |
| AAUGAGCAAUAUUACGUGGA | -3.35 ± 0.32 | -3.04 ± 0.35 |
| AAUGAGCAAUAUUACGUGGG | -4.39 ± 0.36 | -2.87 ± 0.21 |
| AAUGAGCAAUAUUACGUUCC | -2.71 ± 0.17 | -1.43 ± 0.2 |
| AAUUAGCAAUAUUACGACCG | -1.2 ± 0.13 | 0.0816 ± 0.21 |
| AAUUAGCAAUAUUACGAUAG | -3.1 ± 0.26 | -1.75 ± 0.18 |
| AAUUAGCAAUAUUACGCAAU | -2.4 ± 0.13 | -1.74 ± 0.17 |
